A short description of this data set: protein stability index of a GFP-peptide fusion (GPS, HEK-293T) (PSI 1-6); higher = more stable.
Setting [1] is: treatment: DMSO, c terminus: a fixed tail appended.
Setting [2] is: treatment: MLN4924 1 uM, 8 h, c terminus: a fixed tail appended.

± gives the standard deviation.

Data on 72 sequences can be found in the supplement of paper PMC10567573.
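Further: 24-mer peptide tiles fused after GFP, lentivirally expressed, FACS-sorted into six equal bins by GFP/DsRed ratio, decoded by Illumina sequencing, PSI is the read-weighted mean bin number.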

Regarding CLMIGRDLVRLLQNVARIPEFELL [INTS3], the protein stability index was found to be 2.49 ± 0.17 under setting [1] and 2.24 ± 0.25 under setting [2].
Regarding CLTAGPEVAAQLPAVRQLLPCARV [ZSWIM9], the protein stability index amounted to 2.94 ± 0.21 under setting [1] and 2.97 ± 0.41 under setting [2].
The corresponding values for CPAELRPQVPQPPSPAAVPRPPSN [TRAF3IP2] are 5.18 ± 0.13 and 5.01 ± 0.28.
Take CRTYIIHYYLMDDTVEIREVHERN [EFHC1]: the protein stability index is, setting by setting: under setting [1], 2.55 ± 0.38; under setting [2], 2.39 ± 0.29.
For CTEKFKTSRDRKDHMVRMHLYPAD [ZNF511], in that order: 3.49 ± 0.38 and 3.48 ± 0.25.
In the case of CVARPGTPSLLRFALASLLQSAPD [ZSWIM9], the protein stability index was 2.19 ± 0.18 under setting [1] and 2.24 ± 0.31 under setting [2].
As to CYVGATVLRGRLYAIAGYDGNSLL [KLHL12], the protein stability index runs as follows: under setting [1], 3.2 ± 0.34; under setting [2], 2.57 ± 0.68.
DAAEEEKYDMEVRVQKTSKELEDM [TNNI2]: the protein stability index was 5.45 ± 0.24 under setting [1] and 5.46 ± 0.17 under setting [2].
The corresponding values for DAAHPTNVQRLAEPSQMLKHAVVN [CTNNB1] are 4.62 ± 0.19 and 4.62 ± 0.15.
Sequence DAHFCAVCSDYASGYHYGVWSCEG [ESR2] yielded a protein stability index under setting [1] of 2.2 ± 0.45 and a protein stability index under setting [2] of 2.49 ± 0.42.
Consider DATLSLKQTILDKEEKQRRNVAKN [TTC32], for which the protein stability index is, setting by setting: under setting [1], 4.99 ± 0.28; under setting [2], 4.91 ± 0.19.
The corresponding values for DCLKACQEQIEAVLLNSLQQYRQD [CCND2] are 2.32 ± 0.35 and 2.33 ± 0.28.
The corresponding values for DCLQGIRKGLQHGFFDFETFDVDE [CDC14A] are 3.33 ± 0.3 and 3.62 ± 0.61.
The corresponding values for DDLMGILCKSVLEIERAIKQTQCP [FEM1C] are 2.07 ± 0.22 and 2.46 ± 0.29.
DDSDTQQVVVLVRDNGDPSLSSTA [PCDHGC5] had a protein stability index under setting [1] of 4.76 ± 0.16 and a protein stability index under setting [2] of 4.83 ± 0.22.
For the sequence DEASAATPPSSRRVWSPPRVHKVE [ZBTB22], the protein stability index under setting [1] came to 5 ± 0.073 and the protein stability index under setting [2] is 4.99 ± 0.15.
For DEISDHAKVLTLSDDLERTIEERV [EIF5], in that order: 5.16 ± 0.28 and 5.44 ± 0.11.
For DELIPEYLNFIRGVVDSEDLPLNI [HSP90AB1], in that order: 3.22 ± 0.38 and 3.3 ± 0.47.
For DERTHRSDRPFKCNQCGKCFIQSS [ZNF8], in that order: 2.98 ± 0.42 and 3.25 ± 0.47.
On to DESGGPDNEDYPLFRELWRYHFAT [KLHDC10], for which the protein stability index under setting [1] is 2.95 ± 0.29 and the protein stability index under setting [2] stood at 2.99 ± 0.27.
In the case of DFQPREEAMLYHNQTAELRELLEF [P3H4], the protein stability index by setting is: under setting [1], 3.96 ± 0.28; under setting [2], 4.01 ± 0.16.
The corresponding values for DFTLSKTNMARIREIMEKFGKQPV [CPXM2] are 2.71 ± 0.088 and 2.62 ± 0.33.
For DGPGGNLAHAFQPGPGIGGDAHFD [MMP1], in that order: 4.95 ± 0.3 and 4.9 ± 0.14.
On to DHSSRELSKILAKLERLKQQNEDL [FUT8], for which the protein stability index is, setting by setting: under setting [1], 3.89 ± 0.12; under setting [2], 4.03 ± 0.16.
The corresponding values for DHWNNEKERILLVTDKTLLICKYD [TPRG1] are 2.18 ± 0.32 and 2.47 ± 0.15.
With DIDLSLYIPRDVDETGITVASLER [ZC3H15], the protein stability index is, setting by setting: under setting [1], 3.19 ± 0.28; under setting [2], 3.5 ± 0.23.
For DIETACKLLNITADPMDWSPSNVQ [SPDEF], in that order: 2.75 ± 0.42 and 2.77 ± 0.17.
The corresponding values for DIGAVYSHRPNQHNTVKLGAFQAQ [PRIM1] are 3.11 ± 0.41 and 3.19 ± 0.45.
As to DIHITARIESDLTLESLSDEEIHP [DRICH1], the protein stability index was 4.85 ± 0.2 under setting [1] and 4.91 ± 0.19 under setting [2].
For the sequence DIHVGLRGVPLLEWETEVEMDKLR [CLCN6], the protein stability index runs as follows: under setting [1], 3.98 ± 0.23; under setting [2], 3.96 ± 0.41.
As for DIISTVEFNHTGELLATGDKGGRV [PPP2R2B], the protein stability index is 3.16 ± 0.43 under setting [1] and 3.25 ± 0.5 under setting [2].
For DILPIHPPSGNSDLDPDAQNPML [BTBD10], the protein stability index (treatment: DMSO, c terminus: native) worked out at 5.46 ± 0.17 and the protein stability index (treatment: MLN4924 1 uM, 8 h, c terminus: native) was determined as 5.21 ± 0.22.
Under setting [1], DKTDISSGRARQQDEEMLELPAPA [MLH1] gave a protein stability index of 5.42 ± 0.36.
With DKVIELHKSHRGMTPAEAEMHFLE [EPB41L3], the protein stability index was found to be 4.51 ± 0.22 under setting [1] and 4.38 ± 0.14 under setting [2].
For DLFVENMPGFPDNIRPSSSGGYWV [APMAP], in that order: 2.32 ± 0.26 and 2.49 ± 0.34.
Regarding DLGGSIYANLALSGLIEIQSYPLC [SLC22A15], the protein stability index is 3.02 ± 0.72 under setting [1] and 2.63 ± 0.76 under setting [2].
The corresponding values for DLGNACWVHKHFTEDIQTRQYRSI [SRPK2] are 2.61 ± 0.23 and 2.72 ± 0.11.
The corresponding values for DLPPPPADPVLDLPLPPPPPEPLS [APBB1IP] are 5.39 ± 0.3 and 5.33 ± 0.18.
For DLSMDGLFGTIAYLPPERIREKSR [RIPK4], in that order: 3.58 ± 0.27 and 3.66 ± 0.34.
DLSPLLGFWQLPPPATQNTFGNST [PLAGL1] had a protein stability index under setting [1] of 2.36 ± 0.43 and a protein stability index under setting [2] of 2.5 ± 0.23.
The corresponding values for DNLLAAADKYALERLKVMCEEALC [SPOPL] are 2.75 ± 0.32 and 2.78 ± 0.15.
For DPCVISQEIMEKYNIKLKWTNQQK [CFHR2], in that order: 3.19 ± 0.22 and 2.92 ± 0.22.
Turning to DPMLDFYSDKNAKLTKESYPVVVA [TENT5D], the protein stability index worked out at 3.77 ± 0.26 under setting [1] and 3.85 ± 0.23 under setting [2].
As to DQENFQGKRMEFTSSCPNVSERSF [CRYBA1], the protein stability index reads like this: under setting [1], 4.49 ± 0.12; under setting [2], 4.46 ± 0.24.
Regarding DQFSALGLDPCLLEDELDKSVQGT [SLC6A17], the protein stability index is, setting by setting: under setting [1], 5.18 ± 0.14; under setting [2], 5.19 ± 0.14.
The corresponding values for DQNTVVTRQLSEENANLQEYVEKE [MTUS2] are 5.41 ± 0.25 and 5.51 ± 0.21.
For the sequence DQTGKEVADRWYSEIKNYNFQQPG [GLIPR2], the protein stability index turned out to be 4.15 ± 0.34 under setting [1] and 3.88 ± 0.31 under setting [2].
For DRAVNDYPSLYYPEMYILKGGYKE [CDC25B], the protein stability index reads like this: under setting [1], 2.67 ± 0.25; under setting [2], 2.85 ± 0.46.
With DRKLHSRPRKLYKHSSTSSRIAKG [BTBD10], the protein stability index worked out at 3.81 ± 0.15 under setting [1] and 3.79 ± 0.25 under setting [2].
As to DRLVVTECQLTHSHPACPLEFAYY [ZSWIM9], the protein stability index by setting is: under setting [1], 2.53 ± 0.31; under setting [2], 2.53 ± 0.32.
For DRVLRAMLKAEETCAPSVSYFKCV [CCND1], the protein stability index by setting is: under setting [1], 2.29 ± 0.25; under setting [2], 2.35 ± 0.4.
The corresponding values for DSDVPEQRDSKCKVKWTHEEDEQL [MYBL2] are 5.44 ± 0.32 and 4.94 ± 0.76.
With DSVLKGMQAASSKMVSAEISENRK [SDE2], the protein stability index was found to be 4.31 ± 0.23 under setting [1] and 4.68 ± 0.33 under setting [2].
The corresponding values for DVSLPRGAFPPRGPRPVQSVVPEM [CDK4] are 4.01 ± 0.33 and 3.94 ± 0.33.
DWEAVPQRKLKPPIVPKIAGDGDT [PRKX]: the protein stability index runs as follows: under setting [1], 4.9 ± 0.21; under setting [2], 4.87 ± 0.24.
For the sequence EAKAVGLISHVLEQNQEGDAAYRK [AUH], the protein stability index under setting [1] turned out to be 5.22 ± 0.22 and the protein stability index under setting [2] came to 5.18 ± 0.28.
The corresponding values for EAPKYHIPYWVAYYLALLLSLLVM [NSDHL] are 2.63 ± 0.36 and 2.53 ± 0.69.
As to EAVTCGNTEVPARNLYAYIQKLTQ [PTPRD], the protein stability index is, setting by setting: under setting [1], 2.81 ± 0.19; under setting [2], 2.96 ± 0.36.
For ECEEGELSFYDAERHCHLYTFHAR [TRIM35], in that order: 3.18 ± 0.27 and 3.21 ± 0.24.
In the case of EDENIEVVYSKAASVPKVETVKSD [EIF5], the protein stability index was determined as 5.44 ± 0.41 under setting [1] and 5.4 ± 0.19 under setting [2].
Sequence EDPEENPYGPPPDAVQTSLMDEGA [RBBP5] gave a protein stability index under setting [1] of 5.56 ± 0.33 and a protein stability index under setting [2] of 5.46 ± 0.29.
For EDSAQNCFALIPKAPKKDVIKMLV [EFHC1], in that order: 2.69 ± 0.4 and 2.97 ± 0.26.
The corresponding values for EEAEWESINVLLMMHGLKPLSLVK [CEP70] are 2.36 ± 0.66 and 2.31 ± 0.35.
The corresponding values for EEARRNRLMRDMAQLRLQLEVSQL [SMG5] are 2.25 ± 0.27 and 2.41 ± 0.29.
As to EEDSILIIPTPDEEEKILRVKLEE [ZNF24], the protein stability index came to 5.03 ± 0.14 under setting [1] and 5 ± 0.31 under setting [2].
Consider EEETVTTKHIHITQATETTTTRHK [CLINT1], for which the protein stability index is, setting by setting: under setting [1], 5.15 ± 0.2; under setting [2], 5.19 ± 0.44.
The corresponding values for EEGPTVVLNPHPSLGYKEIRKGES [CHGA] are 4.96 ± 0.29 and 5.03 ± 0.27.
For EEHGLQQERPRPEPGRLGSSSPAS [PXN], in that order: 5.25 ± 0.43 and 5.1 ± 0.15.
As to EENRLREELRQEWEAKQEKIKSEE [FAM50A], the protein stability index came to 5.59 ± 0.14 under setting [1] and 5.52 ± 0.21 under setting [2].
EEPQWVPDKECRRCMQCDAKFDFL [ZFYVE21] had a protein stability index under setting [1] of 2.85 ± 0.45 and a protein stability index under setting [2] of 2.95 ± 0.39.
For EFRRWRDTGVAFELRDSSAYHVPN [DNAAF3], in that order: 2.75 ± 0.24 and 3 ± 0.32.
For EFSRATAEKVNQDMCMKVPDDPEH [CRYL1], in that order: 5.62 ± 0.17 and 5.12 ± 0.75.
